According to the supplement of paper PMC9112550, “Optimization of the antimicrobial peptide Bac7 by deep mutational scanning” (BMC Biology, 2022):

system: Escherichia coli TOP10; test: shrunken log2 fold change of peptide-encoding DNA abundance (4.5 h post-induction vs induction); higher = less antimicrobial activity (less host growth inhibition); conditions: time post-induction: 4.5 h; library: site-saturation at positions 5, 18, 19, 20
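Also: peptides expressed intracellularly from a pBAD plasmid library in pooled LB shake-flask culture, induced with 0.3% L-arabinose, DNA abundance read by NGS, three biological replicates, DESeq2 with apeglm shrinkage.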

| Sequence | shrunken log2 fold change |
| --- | --- |
| RRIRNRPPRLPRPRPRPASVPRP | -0.0792 |
| RRIRHRPPRLPRPRPRPRFYPRP | -0.015 |
| RRIRARPPRLPRPRPRPPNYPRP | -0.0985 |
| RRIRMRPPRLPRPRPRPHFPPRP | -0.106 |
| RRIRFRPPRLPRPRPRPKKCPRP | 0.107 |
| RRIRWRPPRLPRPRPRPDSFPRP | 0.00192 |
| RRIRHRPPRLPRPRPRPLVHPRP | -0.238 |
| RRIRPRPPRLPRPRPRPSSKPRP | -0.217 |
| RRIRGRPPRLPRPRPRPTAWPRP | 1.84 |
| RRIRMRPPRLPRPRPRPDEHPRP | 2.21 |
| RRIRSRPPRLPRPRPRPILPPRP | 0.161 |
| RRIRLRPPRLPRPRPRPQHNPRP | -0.507 |
| RRIRQRPPRLPRPRPRPTKGPRP | -0.0785 |
| RRIRPRPPRLPRPRPRPSFNPRP | -0.629 |
| RRIRNRPPRLPRPRPRPWQDPRP | -0.112 |
| RRIRFRPPRLPRPRPRPHFYPRP | -0.38 |
| RRIRGRPPRLPRPRPRPGGNPRP | 0.0695 |
| RRIRLRPPRLPRPRPRPKTFPRP | -0.201 |
| RRIRPRPPRLPRPRPRPGQIPRP | -0.0497 |
| RRIRERPPRLPRPRPRPQANPRP | -0.0396 |
| RRIRERPPRLPRPRPRPNMPPRP | -0.706 |
| RRIRPRPPRLPRPRPRPSGDPRP | 0.14 |

| Sequence | shrunken log2 fold change |
| --- | --- |
| RRIRNRPPRLPRPRPRPDHGPRP | -0.319 |
| RRIRRRPPRLPRPRPRPFMEPRP | 0.0534 |
| RRIRERPPRLPRPRPRPGFDPRP | 0.0961 |
| RRIRVRPPRLPRPRPRPLWPPRP | 0.176 |
| RRIRARPPRLPRPRPRPVMGPRP | 0.177 |
| RRIRERPPRLPRPRPRPKACPRP | 0.0288 |
| RRIRNRPPRLPRPRPRPTTAPRP | -0.0817 |
| RRIRYRPPRLPRPRPRPDWIPRP | -0.589 |
| RRIRIRPPRLPRPRPRPSMHPRP | -0.511 |
| RRIRKRPPRLPRPRPRPNKDPRP | 0.0544 |
| RRIRCRPPRLPRPRPRPMTCPRP | -0.205 |
| RRIRCRPPRLPRPRPRPDGVPRP | 0.125 |
| RRIRQRPPRLPRPRPRPRHFPRP | 0.0257 |
| RRIRPRPPRLPRPRPRPHFEPRP | 0.0605 |
| RRIRHRPPRLPRPRPRPTYWPRP | 0.293 |
| RRIRGRPPRLPRPRPRPWQPPRP | -0.12 |
| RRIRRRPPRLPRPRPRPDPMPRP | 0.326 |
| RRIRNRPPRLPRPRPRPVMNPRP | -0.075 |
| RRIRWRPPRLPRPRPRPAWIPRP | 0.035 |
| RRIRERPPRLPRPRPRPSYPPRP | -0.877 |
| RRIRLRPPRLPRPRPRPHEQPRP | 0.00509 |
| RRIRNRPPRLPRPRPRPEIAPRP | -0.0256 |

| Sequence | shrunken log2 fold change |
| --- | --- |
| RRIRHRPPRLPRPRPRPDGLPRP | -0.0219 |
| RRIRLRPPRLPRPRPRPVSQPRP | 0.0349 |
| RRIRFRPPRLPRPRPRPFVEPRP | -0.27 |
| RRIRMRPPRLPRPRPRPMTNPRP | 0.165 |
| RRIRVRPPRLPRPRPRPMATPRP | -0.182 |
| RRIRERPPRLPRPRPRPEWGPRP | 0.23 |
| RRIRMRPPRLPRPRPRPSLEPRP | 0.895 |
| RRIRERPPRLPRPRPRPQWDPRP | 0.0698 |
| RRIRARPPRLPRPRPRPEPMPRP | 0.44 |
| RRIRNRPPRLPRPRPRPRYMPRP | -1.3 |
| RRIRKRPPRLPRPRPRPSKEPRP | 0.0111 |
| RRIRPRPPRLPRPRPRPKVWPRP | 0.318 |
| RRIRKRPPRLPRPRPRPKQAPRP | 0.00509 |
| RRIRFRPPRLPRPRPRPYSAPRP | -1.11 |
| RRIRFRPPRLPRPRPRPHVRPRP | -0.271 |
| RRIRRRPPRLPRPRPRPWVGPRP | -0.00367 |
| RRIRQRPPRLPRPRPRPPNTPRP | -0.0954 |
| RRIRGRPPRLPRPRPRPCARPRP | 0.38 |
| RRIRCRPPRLPRPRPRPRWDPRP | -0.128 |
| RRIRKRPPRLPRPRPRPRTGPRP | 0.376 |
| RRIRARPPRLPRPRPRPWTLPRP | -0.256 |
| RRIRYRPPRLPRPRPRPFNQPRP | -0.0309 |

| Sequence | shrunken log2 fold change |
| --- | --- |
| RRIRRRPPRLPRPRPRPRIVPRP | 0.00997 |
| RRIRTRPPRLPRPRPRPYSAPRP | -0.206 |
| RRIRIRPPRLPRPRPRPTSGPRP | -0.00782 |
| RRIRNRPPRLPRPRPRPPYSPRP | -0.604 |
| RRIRTRPPRLPRPRPRPQTEPRP | -0.0173 |
| RRIRFRPPRLPRPRPRPGNYPRP | -0.401 |
| RRIRFRPPRLPRPRPRPCSRPRP | -0.22 |
| RRIRFRPPRLPRPRPRPCWPPRP | 0.0203 |
| RRIRQRPPRLPRPRPRPDTAPRP | -0.0746 |
| RRIRKRPPRLPRPRPRPHPFPRP | 0.188 |
| RRIRYRPPRLPRPRPRPYYKPRP | -0.534 |
| RRIRRRPPRLPRPRPRPMPSPRP | 0.136 |
| RRIRIRPPRLPRPRPRPIIKPRP | -0.666 |
| RRIRARPPRLPRPRPRPGGCPRP | 0.81 |
| RRIRKRPPRLPRPRPRPHNVPRP | -0.097 |
| RRIRHRPPRLPRPRPRPNWCPRP | -0.00989 |
| RRIRFRPPRLPRPRPRPEIQPRP | 0.0158 |
| RRIRWRPPRLPRPRPRPGRGPRP | 0.643 |
| RRIRMRPPRLPRPRPRPRLAPRP | 2.7 |
| RRIRGRPPRLPRPRPRPVMWPRP | 0.932 |
| RRIRKRPPRLPRPRPRPSDMPRP | 0.0199 |
| RRIRKRPPRLPRPRPRPTRLPRP | 0.537 |

| Sequence | shrunken log2 fold change |
| --- | --- |
| RRIRRRPPRLPRPRPRPEWCPRP | 0.17 |
| RRIRHRPPRLPRPRPRPIANPRP | -0.24 |
| RRIRGRPPRLPRPRPRPLLMPRP | 1.22 |
| RRIRYRPPRLPRPRPRPSVGPRP | -0.124 |
| RRIRKRPPRLPRPRPRPICFPRP | 0.272 |
| RRIRMRPPRLPRPRPRPCMAPRP | 0.59 |
| RRIRERPPRLPRPRPRPIGIPRP | -0.123 |
| RRIRLRPPRLPRPRPRPTTCPRP | 0.0385 |
| RRIRPRPPRLPRPRPRPTWWPRP | 0.426 |
| RRIRWRPPRLPRPRPRPHQVPRP | -0.145 |
| RRIRVRPPRLPRPRPRPHVVPRP | -0.479 |
| RRIRDRPPRLPRPRPRPPWHPRP | 0.148 |
| RRIRMRPPRLPRPRPRPFHWPRP | -0.184 |
| RRIRLRPPRLPRPRPRPTFTPRP | -0.346 |
| RRIRCRPPRLPRPRPRPCKEPRP | -0.35 |
| RRIRIRPPRLPRPRPRPFITPRP | -0.626 |
| RRIRARPPRLPRPRPRPDTMPRP | 0.0783 |
| RRIRGRPPRLPRPRPRPCHRPRP | 0.207 |
| RRIRHRPPRLPRPRPRPHKCPRP | -0.11 |
| RRIRFRPPRLPRPRPRPKQMPRP | 0.382 |
| RRIRYRPPRLPRPRPRPRMRPRP | 0.667 |
